Publication doi:10.1101/683441

Biological target: GST-tagged Nedd4-2, full length (mouse)
Test: pull-down

GST-tagged Nedd4-2, full length (mouse), sequence (Q8CFI0 whole entry): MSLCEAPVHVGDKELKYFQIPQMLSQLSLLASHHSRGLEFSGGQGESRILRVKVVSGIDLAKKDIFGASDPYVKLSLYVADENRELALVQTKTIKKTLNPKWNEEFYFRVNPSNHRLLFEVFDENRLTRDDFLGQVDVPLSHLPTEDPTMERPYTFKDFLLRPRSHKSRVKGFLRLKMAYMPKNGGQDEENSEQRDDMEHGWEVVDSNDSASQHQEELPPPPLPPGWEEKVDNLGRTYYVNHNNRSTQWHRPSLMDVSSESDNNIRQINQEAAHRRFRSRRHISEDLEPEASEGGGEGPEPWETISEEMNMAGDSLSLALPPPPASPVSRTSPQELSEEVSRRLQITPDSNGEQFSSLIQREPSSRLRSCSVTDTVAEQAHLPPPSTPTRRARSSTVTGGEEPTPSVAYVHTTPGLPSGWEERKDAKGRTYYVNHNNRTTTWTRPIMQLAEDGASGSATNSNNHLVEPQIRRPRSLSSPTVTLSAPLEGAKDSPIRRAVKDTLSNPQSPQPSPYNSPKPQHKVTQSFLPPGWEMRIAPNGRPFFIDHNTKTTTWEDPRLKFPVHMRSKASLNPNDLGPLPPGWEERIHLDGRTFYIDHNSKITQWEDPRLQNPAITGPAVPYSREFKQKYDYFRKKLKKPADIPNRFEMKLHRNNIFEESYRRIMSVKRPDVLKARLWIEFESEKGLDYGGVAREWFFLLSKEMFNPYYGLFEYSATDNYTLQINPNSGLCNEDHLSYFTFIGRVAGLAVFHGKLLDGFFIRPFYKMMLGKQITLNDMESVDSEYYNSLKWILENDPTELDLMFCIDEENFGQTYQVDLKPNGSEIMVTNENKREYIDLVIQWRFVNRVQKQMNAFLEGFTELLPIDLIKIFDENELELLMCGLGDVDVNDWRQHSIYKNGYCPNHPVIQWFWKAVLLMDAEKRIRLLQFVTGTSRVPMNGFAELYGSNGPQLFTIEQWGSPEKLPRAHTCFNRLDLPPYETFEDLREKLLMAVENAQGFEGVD

Molecule | fold bound against GST-N4-1
HA-tagged Connexin43 (gap junction alpha 1 protein) (from UniProt P23242 1-382) (natural protein) | 2 fold
HA-tagged Kir4.1 (inwardly rectifying K+ channel 4.1) (natural protein) MTSVAKVYYSQTTQTESRPLVAPGIRRRRVLTKDGRSNVRMEHIADKRFLYLKDLWTTFIDMQWRYKLLLFSATFAGTWFLFGVVWYLVAVAHGDLLELGPPANHTPCVVQVHTLTGAFLFSLESQTTIGYGFRYISEECPLAIVLLIAQLVLTTILEIFITGTFLAKIARPKKRAETIRFSQHAVVASHNGKPCLMIRVANMRKSLLIGCQVTGKLLQTHQTKEGENIRLNQVNVTFQVDTASDSPFLILPLTFYHVVDETSPLKDLPLRSGEGDFELVLILSGTVESTSATCQVRTSYLPEEILWGYEFTPAISLSASGKYIADFSLFDQVVKVASPSGLRDSTVRYGDPEKLKLEESLREQAEKEGSALSVRISNV | 2 fold
